Assay results from publication PMC11098746 (2024).

Key:
ADP269 = biological target: T1, ADP269; assay: AVEXIS screen signal:noise (double-corrected)
T1 chain: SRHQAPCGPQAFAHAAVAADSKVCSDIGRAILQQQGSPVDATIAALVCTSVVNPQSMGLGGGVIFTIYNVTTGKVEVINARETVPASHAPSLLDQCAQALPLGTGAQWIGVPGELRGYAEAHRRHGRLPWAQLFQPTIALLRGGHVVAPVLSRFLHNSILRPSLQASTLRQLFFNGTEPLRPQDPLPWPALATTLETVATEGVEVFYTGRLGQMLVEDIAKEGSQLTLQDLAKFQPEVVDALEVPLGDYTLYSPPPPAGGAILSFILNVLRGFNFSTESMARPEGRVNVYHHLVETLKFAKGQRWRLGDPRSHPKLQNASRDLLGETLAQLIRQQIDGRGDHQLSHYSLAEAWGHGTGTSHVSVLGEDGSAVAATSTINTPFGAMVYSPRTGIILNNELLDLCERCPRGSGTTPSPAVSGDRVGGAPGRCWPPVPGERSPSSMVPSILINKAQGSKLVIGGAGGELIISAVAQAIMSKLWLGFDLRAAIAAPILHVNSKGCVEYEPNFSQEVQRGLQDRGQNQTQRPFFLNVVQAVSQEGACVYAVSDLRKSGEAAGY

ADP389 = biological target: T2, ADP389; assay: AVEXIS screen signal:noise (double-corrected)
T2 chain: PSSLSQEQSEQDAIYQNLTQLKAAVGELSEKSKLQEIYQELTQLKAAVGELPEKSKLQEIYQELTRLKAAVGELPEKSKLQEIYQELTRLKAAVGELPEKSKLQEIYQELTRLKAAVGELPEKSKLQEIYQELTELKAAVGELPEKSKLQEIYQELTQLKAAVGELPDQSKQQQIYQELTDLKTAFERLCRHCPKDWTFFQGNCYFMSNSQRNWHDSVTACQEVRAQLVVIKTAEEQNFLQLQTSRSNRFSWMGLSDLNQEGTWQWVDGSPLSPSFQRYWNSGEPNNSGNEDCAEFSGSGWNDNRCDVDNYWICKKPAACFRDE

B1: ADP191 (protein)
chain: IYYCNDNILENANNDDSTKDINNINKNSANKAKSEKTSNYNNDQYNIDDAYNEDEENDEEEGDDDENDHFEVPINCAGGNCFDSMDDINKIIDNKKKKMKYRRRRGKAIQIIKPNVNHAELIIIEENLEIFKRIDKPIAIVSVLGDMHTGKSFLLNLLNEHVIPDINKANKYIENGFKVGNDITASTYGIWIWSEPIRINVKKLKKIYEYINENFANFIKSYEYEKDEYNEEIIDLLNLYKTDDWISNVEELNLADTDEVNLILMDTQGLNSPNVNKRYDEILYALTNLISTDIIFLTMKMINNKDLEFIENIAKDANLFMLRAYTRSSGSTFSIKKNNFHKILDTLNNNLENNALILESIASKNLMWVVHDFSQRLDVRKGKLWLDILLNSDRRDLDIKYWKKIISNKAKDKHDAYTTKKQKIAYLTYNENSASGLLPNNNNNNNNANDASSNYKLNILYKNIDCVLLRNMYHNKEFDFTKANINDLNEEYKNDVLLLRYKIYLRALLFPKKMYSDVQINNIINKIRKEQKLREEQEKNKDNKKNDANNQANDLNSNKDETSGSQVTNRFMSGHDVYDFITFLVKSANQNLFTNVNQFFKHFKINRAEISRNDLIFLYKKYLLQFMENEDVEFISNLNDENDDLFLQKEGNNAAVNHDENSDADSLFNDHDENMQLKEHNIKDGEDNTHQKKDSYKLPPLLNEIKKYEELIREQILNIWYKYTESDFHDEEEKELIKDIENNLYERLDQIKIEMLELGEMNIRKFCKIACEDALQIVVEDIKMKSDQYPIKQKDLTTFFESVSYNLIKYLEKKLSKNSDKLDLIYYKDNICSPLINNAFQEFYFLKKKNIALNENRLKSYFSNAVEKGKEVFEVLAENTENIAEYFKNKNMFYTVLDKWTSEAINTYTLTLSDFAKEEKEINDEYLNVLNNDIKLLKQKAMEKWHNHCRDKTSALYNMHKSNLKKNFLENFNFPLDELVLQDIFLNLKGQEELKYMDIYCANEDSWNSEYKNFLKLTDEIFQFIKDENLKAIQITCQQPLDELKNGIKGEIHKYYLWSSLKSTLYNRALIVLSSNIENIYIKNQRENKIQSNLDEKYNNKNKNYKRISKDLMSKVINRWLNNDIYNVYYP
modifications: bait human Fc-tagged dimer; N-glycosylation sequons mutated in Plasmodium baits
binding score (ADP269): 9.74

B2: ADP236 (protein)
chain: EFVKGSYESKGYPLIHLMNNNEYTGSANNFIKNNLINLLYIYKDVKFDEEKTLGIDSFLDIEDDTKIERLIKEKMLYINKYINSRQMIKYSGFIYLYEIIEKKNFYFLLHFLMTNNNNGLIIILPEDMYINVDEYYRINKINKLNDQNKKNKVVSQDLLEKRIMFVQSLILNMKLQQSIYFIKNNKDIEKIYENYQSKFAYFDLTRNVAISPISKIQNVYKMNSKSLYYFLNKNNNIHINTIFNKQQDNQAFLLTKQKTIIICADFNVFNIFSDLPSNTAFTNSNLITIQNLIKLFYDVYNKEQVNYNILFFFTNYYYGIQDFLNSINVIFKENIEFVICLDNLNNADFYIYESNKAQPQNVQAFYRILNNIVKGSIKKNVQMVNEKIKIHSKHLPSLHEYFVLNKINSFSLSSSKKNNNMIFLNKFPMLQPKLNIQNVKNNIAIIFKSLYLYMTQKKTDQKENTQQEQSIEKNEKEKSMLTYINKNMASNDDMNTIDYNLNKYNKFFIYKEDTLKLFNYFKTIINSNIADTNFLIKDYKLTTDKKQKFFYQKYAHVTFSMAISYVFH
modifications: bait human Fc-tagged dimer; N-glycosylation sequons mutated in Plasmodium baits
binding score (ADP389): 5.5
